Experimental data taken from US20230312654A1.

Tests used:
[1] = biological target: UFV180846 (influenza B virus B/Brisbane/60/08) (UniProt P22092)
[2] = biological target: UFV180284 (influenza B virus B/Brisbane/60/08) (UniProt P22092)
[3] = biological target: UFV180137 (influenza B virus B/Brisbane/60/08) (UniProt P22092)
[4] = biological target: UFV180251 (influenza B virus B/Brisbane/60/08) (UniProt P22092)
[5] = biological target: UFV180131 (influenza B virus B/Brisbane/60/08) (UniProt P22092)

For monoclonal antibody CR8071, the EC50 [1] was less than 4.6 nM.

monoclonal antibody CR9114 showed an EC50 [1] of less than 4.6 nM, an EC50 [2] of less than 2.6 nM and an EC50 [3] of less than 2.6 nM. It also gave an EC50 [4] of less than 2.6 nM and an EC50 [5] of less than 2.6 nM.
